B1: Construct 1-85: C-terminal truncation construct of MUC5AC, SEQ ID NO: 45 (protein)
chain: ATMSVGRRKLALLWALALALACTTTHSQPVTRDCHLRCTWTKWFDVDFPSPGPHGGDKETYNNIIRSGEKICRRPEEITRLQCRA
modifications: MUC5AC truncation construct (85)
B2: 1-85 (protein)
chain: B1 chain
modifications: MUC5AC truncation construct (85)
B3: Construct 1-338: C-terminal truncation construct of MUC5AC, SEQ ID NO: 50 (protein)
chain: ATMSVGRRKLALLWALALALACTTTHSQPVTRDCHLRCTWTKWFDVDFPSPGPHGGDKETYNNIIRSGEKICRRPEEITRLQCRAESHPEVSIEHLGQVVQCSREEGLVCRNQDQQGPFKMCLNYEVRVLCCETPKGCPVTSTPVTAPSTPSGRATSPTQSTSSWQKSRTTTLVTTSTTSTPQTSTTSAPTTSTTSAPTTSTTSAPTTSTTSTPQTSISSAPTSSTTSAPTSSTISARTTSIISAPTTSTTSSPTTSTTSATTTSTTSAPTSSTTSTPQTSKTSAATSSTTSSSGTTPSPVTTTSTASVSKTSTSHVSVSKTTHSQPVTRCTHHHHHH
modifications: MUC5AC truncation construct (338)
B4: 1-338 (protein)
chain: B3 chain
modifications: MUC5AC truncation construct (338)
B5: Construct 1-187: C-terminal truncation construct of MUC5AC, SEQ ID NO: 48 (protein)
chain: ATMSVGRRKLALLWALALALACTTTHSQPVTRDCHLRCTWTKWFDVDFPSPGPHGGDKETYNNIIRSGEKICRRPEEITRLQCRAESHPEVSIEHLGQVVQCSREEGLVCRNQDQQGPFKMCLNYEVRVLCCETPKGCPVTSTPVTAPSTPSGRATSPTQSTSSWQKSRTTTLVTTSTTSTPQTSTT
modifications: MUC5AC truncation construct (187)
B6: Construct 1-289: C-terminal truncation construct of MUC5AC, SEQ ID NO: 49 (protein)
chain: ATMSVGRRKLALLWALALALACTTTHSQPVTRDCHLRCTWTKWFDVDFPSPGPHGGDKETYNNIIRSGEKICRRPEEITRLQCRAESHPEVSIEHLGQVVQCSREEGLVCRNQDQQGPFKMCLNYEVRVLCCETPKGCPVTSTPVTAPSTPSGRATSPTQSTSSWQKSRTTTLVTTSTTSTPQTSTTSAPTTSTTSAPTTSTTSAPTTSTTSTPQTSISSAPTSSTTSAPTSSTISARTTSIISAPTTSTTSSPTTSTTSATTTSTTSAPTSSTTSTPQTSKTSAATSS
modifications: MUC5AC truncation construct (289)
B7: 1-289 (protein)
chain: B6 chain
modifications: MUC5AC truncation construct (289)

Tested on: NEO-101 antibody
Assay: Immunofluorescence of 293T cells transfected with MUC5AC truncation constructs
Format: cell-based
Details: 2 μg/ml NEO-101 antibody
Description: Six truncation constructs were made representing C-terminal truncations of the full-length MUC5AC protein (SEQ ID NO: 36).
293T cells were cultured on FBS coated cover slips for 24 hours. Cells were transiently transfected with 2 μg of MUC5AC constructs of Table 8 with LIPOFECTAMINE®. Cells were grown for about 72 hours, fixed with about 4% PFA in PBS, washed with PBS, permeabilized with about 0.2% […] in PBS and washed with PBS. Cells were then blocked with about 1% BSA in PBS, and about 2 μg/ml NEO-101 antibody was added to sample wells and about 2 μg/ml of an Isotype control was added for 1 hour at room temp. Cells were washed with PBS and second anti human-FITC antibody (1:500) was added to all wells and to the second antibody control wells. Cells were washed and mounted on slides with DAPI hard mount. Cover slides were allowed to sit over night at about 4° C. Slides were visualized with a Nikon Eclipse Ti microscope with an Andor camera. At least 3 random fields were counted per transfection.

| Molecule | Binds NPC-1? |
| --- | --- |
| B1 | no binding |
| B2 | No |
| B3 | binding activity |
| B4 | Yes |
| B5 | binding activity |
| B6 | binding activity |
| B7 | Yes |
